Source: publication PMC2665906, “Structure of mouse IP-10, a chemokine” (Acta Crystallographica Section D: Biological Crystallography, 2008)

Target: the molecule itself
Assay: crystal structure; hanging-drop vapour diffusion; protein 10 mg/ml in 50 mM Tris-HCl pH 8.0; 0.1 M Tris-HCl pH 8.0, 0.2 M CaCl2, 35% PEG 3350, 289 K; space group C2, four molecules in the asymmetric unit; 2.5 Å

B1: Mouse interferon-γ-inducible protein (IP-10) (natural protein, UniProt P17515 22-98, looked up)
chain: IPLARTVRCNCIHIDDGPVRMRAIGKLEIIPASLSCPRVEIIATMKKNDEQRCLNPESKTIKNLMKAFSQKRSKRAP
notes: Mouse IP-10 (CXCL10), cloned and expressed as described by Campanella et al. (2003) with some modifications; The model holds residues 1-68 (A), 1-67 (B), 4-68 (C) and 4-67 (D); No tag is mentioned; C-terminal residues beyond 67/68 were not seen in the electron density; also called mouse IP-10; CXCL10
stoichiometry N: 4
